Measurements reported in publication PMC5380960.

Target: LH2-G1 (wild-type LH2 with the N-terminal fragment of Gaussia luciferase fused to its C-terminus) (UniProt O00469)
Experiment: split reporter (BiFC, NanoBiT); Gaussia luciferase protein-fragment complementation; LH2-G1 and FKBP65-G2 plasmids co-transfected 1:1 into 293F cells, 48 h, passive lysis buffer, luciferase activity of total cell lysates with 20 μM native coelenterazine

Sequence of UniProt O00469 (O00469 26-737): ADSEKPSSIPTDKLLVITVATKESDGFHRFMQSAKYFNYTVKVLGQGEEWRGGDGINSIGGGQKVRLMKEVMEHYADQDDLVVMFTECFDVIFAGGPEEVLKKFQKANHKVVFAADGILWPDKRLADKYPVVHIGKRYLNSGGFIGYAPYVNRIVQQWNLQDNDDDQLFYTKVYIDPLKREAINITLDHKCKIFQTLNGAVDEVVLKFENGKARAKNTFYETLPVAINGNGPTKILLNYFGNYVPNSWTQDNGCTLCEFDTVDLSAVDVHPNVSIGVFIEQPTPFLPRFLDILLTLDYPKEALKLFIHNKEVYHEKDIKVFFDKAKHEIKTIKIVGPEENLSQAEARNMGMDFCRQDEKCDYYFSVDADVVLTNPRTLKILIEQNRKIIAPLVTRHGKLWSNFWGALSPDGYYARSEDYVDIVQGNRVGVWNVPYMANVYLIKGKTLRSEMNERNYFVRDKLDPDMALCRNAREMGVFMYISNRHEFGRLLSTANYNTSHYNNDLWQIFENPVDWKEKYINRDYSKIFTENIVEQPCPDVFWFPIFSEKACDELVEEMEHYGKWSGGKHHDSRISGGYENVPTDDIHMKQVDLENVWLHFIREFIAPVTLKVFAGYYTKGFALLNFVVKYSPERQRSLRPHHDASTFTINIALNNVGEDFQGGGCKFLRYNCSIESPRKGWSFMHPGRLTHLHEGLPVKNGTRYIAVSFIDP

fold luciferase activity of co-transfected cells over either vector alone: 800 fold
Substance: FKBP65-G2 (FKBP65 with the C-terminal fragment of Gaussia luciferase fused to its C-terminus) (from UniProt Q96AY3 27-582) (enzyme)
